From patent publication US11091749B2, “Deimmunized lysostaphin and methods of use” (TRUSTEES OF DARTMOUTH COLLEGE, priority 2014, dated 2021)

How the values were obtained:
S. aureus cells [1] = assay: Lytic assay using purified protein (SYTOX kinetic assay); assay type: cell-based, Staphylococcus aureus; details: for % WT Lytic Rate: biological duplicates; for % Wild-Type Activity: 200 ng purified enzyme
Procedure: (§1) S. aureus cells were grown either to mid-log or to saturation in tryptic soy broth (TSB) at 37° C. with shaking. The cells were harvested by centrifugation and washed once in phosphate buffered saline (PBS: 2.7 mM KCl, 1.5 mM KH2PO4, 8.9 mM Na2HPO4, 136.9 mM NaCl, pH 7.4). The assay was performed in 96-well, black, clear bottom plates from Greiner Bio-One (Monroe, N.C.). The final (250 μl) reaction was composed of 10 μl of P. pastoris culture supernatant, S. aureus cells at OD600=1.5, and 5 μM SYTOX Green (Thermo Fisher Scientific; Waltham, Mass.), all in PBS. Data were collected using SPECTRAMAX GEMINI Fluorescence Microplate Reader (Molecular Devices; Sunnyvale, Calif.) using an excitation/emission of 504/523 nm, and rates were determined from the slope of the steepest linear portion of the trace. Each assay was performed with 500 ng of commercially-sourced lysostaphin (ssLys) as an internal control.
The activity of purified lysostaphin variants was examined using the SYTOX kinetic assay as previously described in Chapter 2, Section 3.2.6. 200 ng of purified enzyme (instead of culture supernatant) was used in each reaction.

S. aureus 6445 = assay: MIC assay; assay type: cell-based, Staphylococcus aureus; details: biological duplicates
S. aureus SA113 [2] = assay: MIC assay; assay type: cell-based, Staphylococcus aureus; details: for MIC Strain SA113: biological duplicates; for MIC: S. aureus SA113, purified enzyme
Procedure: (§2) The MICs of wild-type lysostaphin and its variants were determined by adding 2-fold serial dilutions of enzymes into wells of a polypropylene 96-well plate (Costar 3879) containing ˜40,000 S. aureus SA113 (or S. aureus 6445, 3425-1, 3425-3) cells in Muller Hinton broth (BD) supplemented with 2% NaCl and 0.1% bovine serum albumin, yielding a total volume of 100 μl. Plates were grown overnight at 37° C. with shaking at 900 rpm on an Orbit P4 orbital shaker (Labnet; Edison, N.J.). […] The assay was performed in triplicate for each enzyme.

S. aureus 3425-1 = assay: MIC assay; assay type: cell-based, Staphylococcus aureus; details: biological duplicates
Procedure: as §2

MRSA strain 3425-3 = assay: MIC assay; assay type: cell-based, Staphylococcus aureus; details: biological duplicates
Procedure: as §2

[3] = Thermostability by differential scanning fluorimetry; assay type: physicochemical
Procedure: The relative thermostability of the lysostaphin variants was determined by differential scanning fluorimetry, as previously described (Niesen, et al. (2007) Nat. Protocols 2:2212-2221). Proteins and SYPRO Orange were diluted in PBS (final concentrations of 100 μg/ml and 5× in 20 μl reaction volume, respectively), and fluorescence was quantified at 1-degree increments from 25 to 94° C. using an Applied Biosystems ABI 7500 fast real-time PCR system. The reactions were performed using PCR Plates for Fast Thermocyclers (VWR; Radnor, Pa.). Fluorescence was quantified using the preset TAMRA parameters. Melting temperatures were determined by data analysis with the ‘DSF Analysis v3.0.xlsx’ EXCEL sheet and GraphPad Prism v.6.02 software.

S. aureus cells [4] = assay: Lytic assay of culture supernatant (SYTOX Green); assay type: cell-based, Staphylococcus aureus; details: single point mutants
Procedure: as §1
The amount of protein used in each assay was estimated from SDS-PAGE gels. Briefly, 10 μl of culture supernatant was run on a SDS-PAGE gel together with standards of 0.5 μg, 0.7 μg, and 1 μg of ssLys in separate lanes. The gel was stained using GELCODE Blue Stain Reagent from Thermo Fisher Scientific (Carlsbad, Calif.) and bands quantified using Quantity Tools from Image Lab 5.1 software (Bio-Rad Laboratories; Hercules, Calif.).

S. aureus SA113 [5] = assay: MIC assay using P. pastoris culture supernatant (MIC50); assay type: cell-based, Staphylococcus aureus; details: aglycosylated mutants
Procedure: Lysostaphin MIC was determined essentially as described (Zhao, et al. (2014) supra). Briefly, 100 μl aliquots of P. pastoris culture supernatant were serially diluted in TSB. Each well was inoculated with 100 μl of ˜10^6 CFU/ml S. aureus SA113 in TSB. Microplates were incubated at 37° C. for 24 hours. […] MIC50 was quantified by measuring light scattering at 650 nm in a microplate reader.

pooled splenocytes = details: mouse, in vivo
MRSA strain USA400 [6] = assay: Efficacy of F12 in recurrent systemic MRSA infections; assay type: in vivo, DR4 HLA transgenic mice; details: for # Treated Mice Surviving: 1×10^9 MRSA USA400 i.p., 500 μg enzyme 1 hour later
Procedure: In a similar set of experiments, the immunogenicity and efficacy of variant F12 was compared to wild-type LST in the absence of adjuvant using DR4 HLA transgenic mice. At week 0, mice were challenged with an intraperitoneal injection of 2×10^8 MRSA strain USA400, and 1 hour later the mice were treated with 500 μg wild-type LST or 500 μg variant F12, given as a single bolus subcutaneous injection. Subsequently, mice were challenged weekly with an intraperitoneal injection of 1×10^9 MRSA strain USA400, and treated as above. Antibody titers were measured weekly beginning at week 2. […] Variant F12 rescued all mice from four recurrent, systemic, MRSA infections (Table 24). The substantially lower antibody titers elicited by variant F12 indicate that this variant is […] than wild-type LST.

MRSA strain USA400 [7] = assay: In vitro inhibitory activity (MIC); assay type: cell-based, Staphylococcus aureus
Description: F11, P12 and F13 were screened for in vitro inhibitory activity against MRSA strain USA400 (FIG. 7).

Commercial: Commercial lysostaphin purchased from Sigma, E. coli-produced
% WT Lytic Rate (S. aureus cells [1]): 60 ± 20% | MIC Strain 6445 (S. aureus 6445): 0.03 µg/mL | MIC Strain SA113 (S. aureus SA113 [2]): 0.03 µg/mL | MIC Strain 3425-1 (S. aureus 3425-1): 0.04 µg/mL | MIC Strain 3425-3 (MRSA strain 3425-3): 0.03 µg/mL | Tm ([3]; biological duplicates): 47.3 °C

Flex 14: lysostaphin variant I41E, S122D; two mutation design shared between rigid and flexible designs
% Wild-Type Activity (S. aureus cells [1]): 69% | MIC (S. aureus SA113 [2]): 0.0833 µg/mL | Tm ([3]; SYPRO Orange, PBS): 58.6 °C

Phe38Gly
activity, % of the wild-type activity (S. aureus cells [4]): 69%

Ser124Tyr
activity, % of the wild-type activity (S. aureus cells [4]): 16%

Ser126Pro: aglycosylated lysostaphin mutant Ser126Pro, backbone of the designs
activity compared to the wild-type lysostaphin (S. aureus SA113 [5]): equivalent activity

Thr127Ala
activity compared to the wild-type lysostaphin (S. aureus SA113 [5]): equivalent activity

B1: Flex 9: lysostaphin variant N12G, I41E, L83M, K95E, I99Q, N121G, S122D, S124G (protein, UniProt P10547 248-493, looked up, variant N12G I41E L83M K95E I99Q N121G S122D S124G)
Lysostaphin: AATHEHSAQWLGNYKKGYGYGPYPLGINGGMHYGVDFFMNEGTPVKAISSGKIVEAGWSNYGGGNQIGLIENDGVHRQWYMHMSKYNVKVGDYVEAGQQIGWSGSTGYSTAPHLHFQRMVGDFGNSTAQDPMPFLKSAGYGKAGGTVTPTPNTGWKTNKYGTLYKSESASFTPNTDIITRTTGPFRSMPQSGVLKAGQTIHYDEVMKQDGHVWVGYTGNSGQRIYLPVRTWNKSTNTLGVLWGTIK
% Wild-Type Activity (S. aureus cells [1]): 57% | % WT Lytic Rate (S. aureus cells [1]): 60 ± 20% | MIC Strain 6445 (S. aureus 6445): 0.13 µg/mL | MIC (S. aureus SA113 [2]): 0.1250 µg/mL | concentration preventing outgrowth (S. aureus SA113 [2]; all four strains (SA113, 6445, 3425-1, 3425-3)): ≤ 200 ng/mL | MIC Strain SA113 (S. aureus SA113 [2]): 0.04 µg/mL | MIC Strain 3425-1 (S. aureus 3425-1): 0.2 µg/mL | MIC Strain 3425-3 (MRSA strain 3425-3): 0.2 µg/mL | Tm ([3]; SYPRO Orange, PBS): 53.0 °C | Tm ([3]; biological duplicates): 52.8 °C | reduced proliferative response relative to wild-type group (pooled splenocytes): 65%

B2: F12: variant combining cell wall binding domain mutations with Flex 9 (or derivative) catalytic domain (Table 22) (protein)
chain: AATHEHSAQWLGNYKKGYGYGPYPLGINGGMHYGVDFFMNEGTPVKAISSGKIVEAGWSNYGGGNQIGLIENDGVHRQWYMHMSKYNVKVGDYVKAGQQIGWSGSTGYSTAPHLHFQRMVGDFGNPTAQDPMPFLKSAGYGKAGGTVTPTPNTGWKTNKHGTLYKNESGSFTPNTDIITRTTGPFTSMPQSGVLKAGQTIHYDEVMKQDGHVWVGYTGNSGQRIYLPVRTWQKSTDTLGVLWGTIK
recurrent systemic MRSA infections from which mice were rescued (MRSA strain USA400 [6]; 500 μg s.c., weekly challenges, no adjuvant): four | # Treated Mice Surviving (MRSA strain USA400 [6]; Week 1): 9 | # Treated Mice Surviving (MRSA strain USA400 [6]; Week 2): 8 | # Treated Mice Surviving (MRSA strain USA400 [6]; Week 3): 7 | # Treated Mice Surviving (MRSA strain USA400 [6]; Week 4): 6 | MIC activity relative to wild-type LST (MRSA strain USA400 [7]): 25% | retained original MIC activity after heating (MRSA strain USA400 [7]; 50° C. for 1 hour prior to assay): 50%

B3: Flex 8: lysostaphin variant N12G, I41E, L83M, I99Q, N121G, S122D (protein, UniProt P10547 248-493, looked up, variant N12G I41E L83M I99Q N121G S122D)
Lysostaphin: AATHEHSAQWLGNYKKGYGYGPYPLGINGGMHYGVDFFMNEGTPVKAISSGKIVEAGWSNYGGGNQIGLIENDGVHRQWYMHMSKYNVKVGDYVKAGQQIGWSGSTGYSTAPHLHFQRMVGDFSNSTAQDPMPFLKSAGYGKAGGTVTPTPNTGWKTNKYGTLYKSESASFTPNTDIITRTTGPFRSMPQSGVLKAGQTIHYDEVMKQDGHVWVGYTGNSGQRIYLPVRTWNKSTNTLGVLWGTIK
% Wild-Type Activity (S. aureus cells [1]): 60% | MIC (S. aureus SA113 [2]): 0.2083 µg/mL | Tm ([3]; SYPRO Orange, PBS): 52.9 °C

B4: Flex 10: lysostaphin variant N12G, I41E, N121G, S122D (protein, UniProt P10547 248-493, looked up, variant N12G I41E N121G S122D)
Lysostaphin: AATHEHSAQWLGNYKKGYGYGPYPLGINGGMHYGVDFFMNEGTPVKAISSGKIVEAGWSNYGGGNQIGLIENDGVHRQWYMHLSKYNVKVGDYVKAGQIIGWSGSTGYSTAPHLHFQRMVGDFSNSTAQDPMPFLKSAGYGKAGGTVTPTPNTGWKTNKYGTLYKSESASFTPNTDIITRTTGPFRSMPQSGVLKAGQTIHYDEVMKQDGHVWVGYTGNSGQRIYLPVRTWNKSTNTLGVLWGTIK
% Wild-Type Activity (S. aureus cells [1]): 62% | MIC (S. aureus SA113 [2]): 0.0729 µg/mL | Tm ([3]; SYPRO Orange, PBS): 57.5 °C

B5: Flex 1: lysostaphin variant I41E, I99Q, S122D (SEQ ID NO:32) (protein)
chain: AATHEHSAQWLNNYKKGYGYGPYPLGINGGMHYGVDFFMNEGTPVHAISSGKIVEAGWSNYGGGNQIGLIENDGVHRQWYMHLSKYNVKVGDYVKAGQIIGWSGSTGYSTAPHLHFQTMVNDFGNPTAQDPMPFLKSAGYGKAGGTVTPTPNTGWKTNKYGTLYKSESASFTPNTDIITRTTGPFRSMPQSGVLKAGQTIHYDEVMKQDGHVWVGYTGNSGQRIYLPVRTWNKSTNTLGVLWGTIK
% Wild-Type Activity (S. aureus cells [1]): 63% | MIC (S. aureus SA113 [2]): 0.0833 µg/mL | Tm ([3]; SYPRO Orange, PBS): 55.4 °C

B6: Flex 6: lysostaphin variant N12G, I41E, I99Q, N121G, S122D (protein, UniProt P10547 248-493, looked up, variant N12G I41E I99Q N121G S122D)
Lysostaphin: AATHEHSAQWLGNYKKGYGYGPYPLGINGGMHYGVDFFMNEGTPVKAISSGKIVEAGWSNYGGGNQIGLIENDGVHRQWYMHLSKYNVKVGDYVKAGQQIGWSGSTGYSTAPHLHFQRMVGDFSNSTAQDPMPFLKSAGYGKAGGTVTPTPNTGWKTNKYGTLYKSESASFTPNTDIITRTTGPFRSMPQSGVLKAGQTIHYDEVMKQDGHVWVGYTGNSGQRIYLPVRTWNKSTNTLGVLWGTIK
% Wild-Type Activity (S. aureus cells [1]): 58% | MIC (S. aureus SA113 [2]): 0.2083 µg/mL | Tm ([3]; SYPRO Orange, PBS): 54.1 °C
